Results reported in US20240295565A1 (Genentech, published 2024).

Biological target: human UNC80 (uncoordinated 80; protein unc-80 homolog) (human) (UniProt Q8N2C7)
Experiment: cryo-EM structure, crossover interface

human UNC80 (uncoordinated 80; protein unc-80 homolog) (human), sequence (Q8N2C7 whole entry): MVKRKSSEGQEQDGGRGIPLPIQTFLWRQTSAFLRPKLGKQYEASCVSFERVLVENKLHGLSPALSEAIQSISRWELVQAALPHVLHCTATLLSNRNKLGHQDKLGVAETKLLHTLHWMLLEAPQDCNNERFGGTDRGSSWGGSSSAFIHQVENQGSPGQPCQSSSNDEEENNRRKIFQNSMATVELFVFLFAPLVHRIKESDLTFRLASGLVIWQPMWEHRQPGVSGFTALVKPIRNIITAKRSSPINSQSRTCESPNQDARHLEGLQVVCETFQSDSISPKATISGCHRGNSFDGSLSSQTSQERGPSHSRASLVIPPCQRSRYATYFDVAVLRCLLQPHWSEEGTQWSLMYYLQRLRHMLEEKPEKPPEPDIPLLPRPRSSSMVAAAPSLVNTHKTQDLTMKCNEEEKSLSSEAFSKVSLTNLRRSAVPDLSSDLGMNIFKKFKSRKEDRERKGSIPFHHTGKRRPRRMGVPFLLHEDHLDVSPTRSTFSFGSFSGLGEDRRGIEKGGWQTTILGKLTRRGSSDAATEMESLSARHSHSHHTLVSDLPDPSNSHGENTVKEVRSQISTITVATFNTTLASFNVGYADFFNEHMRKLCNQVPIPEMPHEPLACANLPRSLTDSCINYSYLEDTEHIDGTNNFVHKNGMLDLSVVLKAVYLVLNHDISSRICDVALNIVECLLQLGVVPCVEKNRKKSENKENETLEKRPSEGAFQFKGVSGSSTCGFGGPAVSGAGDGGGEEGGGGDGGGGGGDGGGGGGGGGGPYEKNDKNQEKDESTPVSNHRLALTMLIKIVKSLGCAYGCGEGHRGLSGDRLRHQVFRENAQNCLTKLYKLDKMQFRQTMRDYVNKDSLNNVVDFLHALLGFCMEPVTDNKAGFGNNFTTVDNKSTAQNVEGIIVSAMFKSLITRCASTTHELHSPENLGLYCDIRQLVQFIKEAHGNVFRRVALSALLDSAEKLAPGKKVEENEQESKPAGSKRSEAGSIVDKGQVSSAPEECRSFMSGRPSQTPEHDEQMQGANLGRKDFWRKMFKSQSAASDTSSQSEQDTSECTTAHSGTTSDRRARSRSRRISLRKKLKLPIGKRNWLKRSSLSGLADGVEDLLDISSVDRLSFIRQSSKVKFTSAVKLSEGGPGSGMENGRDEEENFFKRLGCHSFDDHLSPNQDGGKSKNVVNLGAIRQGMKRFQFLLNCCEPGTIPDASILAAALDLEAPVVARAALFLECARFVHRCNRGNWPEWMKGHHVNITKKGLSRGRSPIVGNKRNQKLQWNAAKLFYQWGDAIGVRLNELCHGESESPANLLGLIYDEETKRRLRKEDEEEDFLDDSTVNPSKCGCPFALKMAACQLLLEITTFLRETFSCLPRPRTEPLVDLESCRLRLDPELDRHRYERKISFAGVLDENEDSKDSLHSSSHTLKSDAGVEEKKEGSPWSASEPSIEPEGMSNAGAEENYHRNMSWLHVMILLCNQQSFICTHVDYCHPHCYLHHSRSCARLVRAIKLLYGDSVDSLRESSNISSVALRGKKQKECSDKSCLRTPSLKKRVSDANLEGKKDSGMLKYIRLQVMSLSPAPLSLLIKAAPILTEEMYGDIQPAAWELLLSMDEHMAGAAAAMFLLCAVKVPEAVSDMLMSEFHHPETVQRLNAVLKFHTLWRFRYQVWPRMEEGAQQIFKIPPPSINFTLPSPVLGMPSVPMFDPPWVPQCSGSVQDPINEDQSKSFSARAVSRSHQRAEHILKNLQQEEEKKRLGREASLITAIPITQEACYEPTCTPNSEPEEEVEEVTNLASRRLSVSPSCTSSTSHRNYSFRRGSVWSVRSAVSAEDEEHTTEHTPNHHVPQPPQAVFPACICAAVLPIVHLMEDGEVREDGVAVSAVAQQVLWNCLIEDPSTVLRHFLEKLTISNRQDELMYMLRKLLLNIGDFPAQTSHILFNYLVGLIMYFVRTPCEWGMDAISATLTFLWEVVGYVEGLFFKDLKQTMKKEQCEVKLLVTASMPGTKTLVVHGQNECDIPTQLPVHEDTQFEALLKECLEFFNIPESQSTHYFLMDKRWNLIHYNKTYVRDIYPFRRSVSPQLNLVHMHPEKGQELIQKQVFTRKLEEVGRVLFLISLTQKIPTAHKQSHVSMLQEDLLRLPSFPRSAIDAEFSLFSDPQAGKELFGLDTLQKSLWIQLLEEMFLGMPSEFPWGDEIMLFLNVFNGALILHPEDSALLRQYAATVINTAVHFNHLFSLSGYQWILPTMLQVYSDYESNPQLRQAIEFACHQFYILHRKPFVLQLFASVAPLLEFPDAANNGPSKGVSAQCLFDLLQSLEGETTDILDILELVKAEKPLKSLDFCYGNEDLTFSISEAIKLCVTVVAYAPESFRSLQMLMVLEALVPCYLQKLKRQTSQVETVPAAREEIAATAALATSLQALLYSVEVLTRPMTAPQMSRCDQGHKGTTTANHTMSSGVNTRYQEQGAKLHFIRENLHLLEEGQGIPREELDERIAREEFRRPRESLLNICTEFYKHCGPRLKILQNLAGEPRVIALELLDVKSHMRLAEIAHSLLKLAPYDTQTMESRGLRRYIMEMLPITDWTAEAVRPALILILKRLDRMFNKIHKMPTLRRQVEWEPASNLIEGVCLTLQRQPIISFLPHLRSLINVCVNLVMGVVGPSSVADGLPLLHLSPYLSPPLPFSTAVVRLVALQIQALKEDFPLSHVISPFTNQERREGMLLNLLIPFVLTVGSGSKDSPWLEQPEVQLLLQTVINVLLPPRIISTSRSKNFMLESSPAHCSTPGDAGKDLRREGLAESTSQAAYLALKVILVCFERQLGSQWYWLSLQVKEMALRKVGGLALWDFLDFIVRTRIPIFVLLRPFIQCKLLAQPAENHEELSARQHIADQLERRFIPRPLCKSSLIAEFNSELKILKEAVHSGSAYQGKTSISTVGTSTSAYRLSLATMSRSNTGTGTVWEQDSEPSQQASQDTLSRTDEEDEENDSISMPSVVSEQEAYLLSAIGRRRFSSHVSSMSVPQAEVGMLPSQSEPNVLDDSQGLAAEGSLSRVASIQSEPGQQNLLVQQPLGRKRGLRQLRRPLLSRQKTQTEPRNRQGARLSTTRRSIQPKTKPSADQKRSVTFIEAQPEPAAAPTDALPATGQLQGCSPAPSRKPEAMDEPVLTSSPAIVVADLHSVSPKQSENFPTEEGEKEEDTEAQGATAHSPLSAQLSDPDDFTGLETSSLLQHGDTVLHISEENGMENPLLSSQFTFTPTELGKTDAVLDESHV

Substance: human UNC79 (uncoordinated 79; protein unc-79 homolog), Q9P2D8 1-2635
- buried solvent accessible surface area (crossover interface): 3000 A2
